Positions count from the first letter of the chain named. Names may count otherwise. Values belong to the molecule of their own block, whether it stands above or below them.
Legend:
[1] = molecular target: β1,4-galactosyltransferase B4GalT-I (UniProt P15291); experiment: FRET in cells (heteromer assembly); conditions: n = 3, 15,000 cells each; parent: est. 100; read off a plot
[2] = molecular target: ST6Gal-I cysteine mutant C24S (UniProt P15907); experiment: FRET in cells (homomer assembly); conditions: n = 3, 15,000 cells each; parent: est. 100; read off a plot
[3] = molecular target: T1, ST6Gal-I cysteine mutant C406A, P15907; experiment: FRET in cells (homomer assembly); conditions: chain shown with the change; n = 3, 15,000 cells each; parent: est. 100; read off a plot
T1 chain: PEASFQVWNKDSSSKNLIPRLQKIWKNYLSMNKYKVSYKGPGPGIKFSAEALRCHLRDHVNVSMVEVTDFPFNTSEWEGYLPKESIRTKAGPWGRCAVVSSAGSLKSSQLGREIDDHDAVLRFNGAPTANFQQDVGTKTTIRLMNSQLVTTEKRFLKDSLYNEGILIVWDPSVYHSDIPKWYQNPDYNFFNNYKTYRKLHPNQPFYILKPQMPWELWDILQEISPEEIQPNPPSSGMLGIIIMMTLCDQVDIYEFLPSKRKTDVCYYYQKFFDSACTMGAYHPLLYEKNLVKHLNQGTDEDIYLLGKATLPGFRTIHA

[4] = molecular target: T2, β1,4-galactosyltransferase B4GalT-I, P15291; experiment: FRET in cells (heteromer assembly); conditions: chain shown with the change; n = 3, 15,000 cells each; parent: est. 100; read off a plot
T2 chain: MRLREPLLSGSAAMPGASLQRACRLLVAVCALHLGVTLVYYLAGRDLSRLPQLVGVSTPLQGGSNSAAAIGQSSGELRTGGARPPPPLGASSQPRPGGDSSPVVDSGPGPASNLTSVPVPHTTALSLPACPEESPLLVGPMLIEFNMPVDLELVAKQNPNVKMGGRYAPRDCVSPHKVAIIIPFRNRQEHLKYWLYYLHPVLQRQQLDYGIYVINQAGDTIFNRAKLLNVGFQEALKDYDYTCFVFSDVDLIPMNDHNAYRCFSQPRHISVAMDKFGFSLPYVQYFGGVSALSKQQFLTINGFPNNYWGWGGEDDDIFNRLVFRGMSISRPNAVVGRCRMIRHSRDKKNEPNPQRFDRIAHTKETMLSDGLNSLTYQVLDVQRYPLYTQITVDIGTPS

[5] = molecular target: T3, ST6Gal-I cysteine mutant C353A, P15907; experiment: FRET in cells (homomer assembly); conditions: chain shown with the change; n = 3, 15,000 cells each; parent: est. 100; read off a plot
T3 chain: T1 chain with C265A, A318C

percent of parent (% of WT control) [1]: 97
percent of parent (% of WT control) [2]: 70
Molecule: α-2,6-sialyltransferase ST6Gal-I, wild type (from UniProt P15907) C24S

percent of parent (% of WT control) [3]: 60
percent of parent (% of WT control) [4]: 84
B1: α-2,6-sialyltransferase ST6Gal-I, wild type, P15907 C406A (protein)
chain: T1 chain

percent of parent (% of WT control) [5]: 83
B2: α-2,6-sialyltransferase ST6Gal-I, wild type, P15907 C353A (protein)
chain: T1 chain with C265A, A318C

Source: PMC6454061
